Data as given in patent US6875851.

Legend:
[1] = target: DPP IV from P. gingivalis (Porphyromonas gingivalis); assay: cell-based or functional assay

Substance | Residual activity of DPP IV, % (inhibitor at 10 mM) [1] | Cleavage site (Peptide 23)
Ala-Gly-Pro (peptide) | 1% | 
Ala-Pro (peptide) | 30% | 
DPP IV from P. gingivalis |  | H-Ser-Pro-↑-Tyr-Ser-Ser-Asp-Thr-Thr
Val-Pro (peptide) | 0% | 
